Laboratory results taken from patent US20260231968A1, “AN ECO-FRIENDLY, SUSTAINABLE FOOD PRESERVATIVE” (priority 2023, published 2026).

What was measured:
Type in all cases: cell-based
[1] = Thermal stability of psoriasin, microbial growth inhibition test (CLSI M27/M38); conditions: stock 36 mg/mL in 1×PBS, 4° C to 84° C for one hour
Method: In order to assess its thermal stability, psoriasin stock (36 mg/mL in 1×PBS) was subjected to various temperatures ranging from 4° C. to 84° C. for one hour. The thermally treated psoriasin was subsequently used in a microbial growth inhibition test based on standardized protocols M27 (yeasts) and M38 (filamentous fungi) of the Clinical and Laboratory Standards Institute.

Candida albicans = assay: Microbial Growth Inhibition Test, broth microdilution optical method; conditions: RPMI-MOPS
Method: (§1) The IC90 of psoriasin for several microorganisms was determined by Microbial Growth Inhibition Tests. The tests were performed using the Broth Microdilution Optical Method based on standardized protocols M27 (yeasts) and M38 (filamentous fungi) of the Clinical and Laboratory Standards Institute. […] MOPS, LB (Luria-Bertani), and TSB ([…]) medium types were used, depending on the species being tested. The absorbance was calibrated to each species, and was measured between 450 nm to 650 nm.

Lactobacillus saeki = assay: as above; conditions: TSB
Method: as §1

Lactococcus lactis = assay: as above; conditions: TSB
Method: as §1

Escherichia coli = assay: as above; conditions: LB, TSB
Method: as §1

Listeria monocytogenes = assay: as above; conditions: LB, TSB
Method: as §1

Enterobacter cloacae = assay: as above; conditions: TSB
Method: as §1

[2] = tested on: initial microbial load of plant-based meat substitute; assay: Microbial load of plant-based meat substitute during storage
Method: The ability of psoriasin to extend the shelf life of a plant-based meat substitute was examined under standard storage conditions. Three groups, each stored as an open package at […], were assessed over the course of 16 days. The groups included i) an untreated control, ii) a nisin-treated sample, and iii) a psoriasin-treated sample at 0.65%. A single source of the plant-based meat substitute was used and each group was reproduced in triplicate. The microbial load of the plant-based meat substitute samples was based on the initial microbial load without the addition of antibiotics and without the addition of mold, yeast or bacteria. Samples from each group were taken on days 1, 3, 5, 10, 11 and 16 and total CFU count was determined by plating on LB and PDA agar petri dishes.

Aspergillus flavus [3] = assay: Chickpea paste assay inoculated with A. flavus; conditions: for fungal load count on YAG-agarose plates: 30° C, after 48 and 72 hours
Method: Sterilized and frozen chickpeas (100 g) were boiled for 15 minutes and ground using a blender. The ground chickpeas were treated with chloramphenicol (34 μg/μl) and tetracycline (12.5 μg/μl) to prevent microbial growth. The chickpeas were then inoculated with 500 spores/g of A. flavus and divided into groups of 7 g, and each group was treated with 7 ml of PBS×1 with different His-psoriasin concentrations to reach final concentrations of 0 μM, 50 μM, 100 μM, and 200 μM. The different groups were then divided into 1 g of treated and inoculated chickpeas in 6 well plates (1 g/well) and incubated in a humidified incubator at 30° C. Every day, 1 g of treated chickpeas from each group was diluted in PBS×1 and seeded on YAG-agarose plates to count colonies and calculate the fungi development through time.
For the visual evaluation of the treated/non-treated and inoculated/not-inoculated samples, the samples were prepared in the same way, but incubated at room temperatures and divided into groups of 3 g each.
Chickpeas were boiled and ground and then treated with a combination of chloramphenicol and tetracycline antibiotics (to eliminate bacterial growth) at final concentrations of 34 μg/μl and 12.5 μg/μl, respectively. Samples were divided into ‘inoculated with Aspergillus flavus’ and ‘non-inoculated’, and ‘treated’ and ‘non-treated’ with 180 μM His-psoriasin. All samples were placed in 20° C.
In a follow-up experiment, inoculated chickpea paste samples were treated with three different recombinant His-psoriasin concentrations, namely 50 μM, 100 μM, and 200 μM, and incubated at 30° C. Fungal load count was performed on YAG-agarose plates with antibiotics (chloramphenicol (34 μg/μl) and tetracycline (12.5 μg/μl)) to prevent bacterial growth after 48 and 72 hours.

Aspergillus flavus [4] = assay: Dose-response growth assay in 96 well plates, A. flavus in RPMI-MOPS; conditions: A. flavus, 5,000 spores, absorbance 600 nm
Method: A. flavus A11 spores were seeded on 10 cm plates of YAG-agarose for 3-4 days in a humidified incubator at 30° C. After sporulation, fresh spores were collected with 5 ml DDW+0.2% Tween. Spores were then centrifuged at room temperatures (5 min, 4,000 RPM), and suspended in 5 ml DDW. The suspension was termed “A. flavus fresh stock”.
A. flavus fresh stock was diluted ×1000 using DDW, and the spores were counted using a cytometer to determine the stock spores' concentration. A. flavus fresh stock was used for one week after spore production before disposal.
RPMI-MOPS (RPMI Powder, 165 mM MOPS, and Pen/Strep solution (x100)) was inoculated with either 50,000 spores/ml of A. flavus, or 1 colony/10 ml of C. albicans. The inoculated RPMI-MOPS was poured into a Nunclone™ coated 96-well plate (100 μl per well), with the different treatments and controls. The 96-well plate was then incubated in a shaker/incubator plate-reader at 30° C. where the absorbance (600 nm) was monitored and measured every 10 minutes.
In order to evaluate the ability of recombinant His-psoriasin to inhibit the growth of Aspergillus flavus, 5,000 spores were incubated in a RPMI-MPS medium with variable concentrations of psoriasin added to each well. Fungi growth was monitored using an absorbance plate reader every 10 minutes at 600 nm.

Aspergillus flavus [5] = assay: Microbial Growth Inhibition Test, broth microdilution optical method
Method: as §1
In addition, ethyl lauroyl arginate (LAE), a commercially available food preservative, was tested in similar growth conditions as a reference.

B1: psoriasin: Recombinant human psoriasin (S100a7) containing a histidine tag, amino acid sequence SEQ ID NO: 11, expression vector pET-28a (protein, listed as Homo sapiens)
chain: MSNTQAERSIIGMIDMFHKYTRRDDKIEKPSLLTMMKENFPNFLSACDKKGTNYLADVFEKKDKNEDKKIDFSEFLSLLGDIATDYHKQSHGAAPCSGGSQ
inhibitory properties after thermal treatment [1]: maintained its inhibitory properties
IC90 (Candida albicans): 0.5 µM
IC90 (Lactobacillus saeki): 50 µM
IC90 (Lactococcus lactis): 45 µM
IC90 (Escherichia coli): 100 µM
IC90 (Listeria monocytogenes): 75 µM
IC90 (Enterobacter cloacae): 28 µM
increase of shelf life of plant-based meat substitute [2]: 3 Fold
Yeast & Mold Count ([2]; Day 1): 2 × 10^2
Total CFU count ([2]; Day 1, open package, psoriasin 0.65%): 1.2 × 10^4 CFU
Total CFU count ([2]; Day 3): 1.2 × 10^4 CFU
Yeast & Mold Count ([2]; Day 3): 2 × 10^2
Total CFU count ([2]; Day 5): 1.2 × 10^4 CFU
Yeast & Mold Count ([2]; Day 5): 2 × 10^2
Total CFU count ([2]; Day 10): 6.65 × 10^5 CFU
Yeast & Mold Count ([2]; Day 10): 2 × 10^2
Total CFU count ([2]; Day 11): 6.5 × 10^5 CFU
Yeast & Mold Count ([2]; Day 11): 2 × 10^2
Total CFU count ([2]; Day 16): 2.4 × 10^6 CFU
Yeast & Mold Count ([2]; Day 16): 1 × 10^3
less microbial load than the other two groups (untreated, nisin) ([2]; psoriasin 0.65%): 4 logs
signs of fungal growth in chickpea paste (visual) (Aspergillus flavus [3]; 180 μM, 20° C, after 10 days): did not show any signs of fungal growth
fungal load count on YAG-agarose plates (Aspergillus flavus [3]; 200 μM): No fungi had developed
fungal load count on YAG-agarose plates (Aspergillus flavus [3]; lower concentrations (50 μM, 100 μM)): reduced growth was observed
psoriasin concentration above which no apparent growth was measured (Aspergillus flavus [4]): higher than 375 nM
IC90 (Aspergillus flavus [5]; Aspergillus flavus, RPMI-MOPS): 0.6 µM
inhibition of A. flavus growth (Aspergillus flavus [5]; concentrations of 0.325 μM and above): nearly all growth
inhibition of detectable A. flavus growth (Aspergillus flavus [5]; concentrations of 0.6 μM and above): 100%
